Measured values: article PMC9674263 (Proceedings of the National Academy of Sciences of the …, 2022)

Target: the molecule itself
Test: native gel or EMSA

B1: endogenous PLOD2 of HCC38 cells (enzyme, human (endogenous in HCC38), UniProt O00469 26-737, looked up)
chain: ADSEKPSSIPTDKLLVITVATKESDGFHRFMQSAKYFNYTVKVLGQGEEWRGGDGINSIGGGQKVRLMKEVMEHYADQDDLVVMFTECFDVIFAGGPEEVLKKFQKANHKVVFAADGILWPDKRLADKYPVVHIGKRYLNSGGFIGYAPYVNRIVQQWNLQDNDDDQLFYTKVYIDPLKREAINITLDHKCKIFQTLNGAVDEVVLKFENGKARAKNTFYETLPVAINGNGPTKILLNYFGNYVPNSWTQDNGCTLCEFDTVDLSAVDVHPNVSIGVFIEQPTPFLPRFLDILLTLDYPKEALKLFIHNKEVYHEKDIKVFFDKAKHEIKTIKIVGPEENLSQAEARNMGMDFCRQDEKCDYYFSVDADVVLTNPRTLKILIEQNRKIIAPLVTRHGKLWSNFWGALSPDGYYARSEDYVDIVQGNRVGVWNVPYMANVYLIKGKTLRSEMNERNYFVRDKLDPDMALCRNAREMGVFMYISNRHEFGRLLSTANYNTSHYNNDLWQIFENPVDWKEKYINRDYSKIFTENIVEQPCPDVFWFPIFSEKACDELVEEMEHYGKWSGGKHHDSRISGGYENVPTDDIHMKQVDLENVWLHFIREFIAPVTLKVFAGYYTKGFALLNFVVKYSPERQRSLRPHHDASTFTINIALNNVGEDFQGGGCKFLRYNCSIESPRKGWSFMHPGRLTHLHEGLPVKNGTRYIAVSFIDP
  stoichiometry N: 2
